Data as given in patent publication EP3988566A1 (AC Immune SA, dated 2022).

Biological target: Amyloid Beta (antigen of the Amyloid Beta ELISA) (UniProt P05067 672-713, limits assumed)
Assay: Amyloid Beta ELISA, purified antibodies

Chain of Amyloid Beta (antigen of the Amyloid Beta ELISA) (P05067 672-713 limits assumed): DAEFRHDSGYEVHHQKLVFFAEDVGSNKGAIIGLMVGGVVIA

fold reduction of binding activity against the chimeric control antibody C2 ChVHAF/ChVK: ~2 fold
B1: humanized antibody C2 HuVH2/HuVK3 (antibody, V domains shown)
VH: EVQLVESGGGLVQPGGSLRLSCAASGFTFSSYGMSWVRQAPGKGLEWVASINSNGGSTYYPDSVKGRFTISRDNAKNSLYLQMNSLRAEDTAVYYCASGDYWGQGTTVTVSS
VL: DIVMTQSPLSLPVTPGEPASISCRSSQSLVYSNGDTYLHWYLQKPGQSPKLLIYKVSNRFSGVPDRFSGSGSGTDFTLKISRVEAEDVGVYYCSQSTHVPWTFGQGTKVEIKR
